{"source": "the RNAGym collection of RNA variant scans (doi:10.7554/elife.90254)", "parents": {"B1": {"name": "LINE1-full (parent)", "chain": "UACGUAGGUGGUUUUCCCCUGAUAGUGCUAAGGGGGCCUGGAAGUUUGGACUGGGCAGAGCUCAACACAGCGUGGCAAAGUGGCUGUGGCUAGACUGCCUCUCUGGAUUCCUCGUCACUCAGCAGGGCAUCUCUGAGAGAAAUGCC"}}, "data": [{"variants_of": "B1", "experiment": "self-cleavage, relative activity (ratio to wild type); higher = more cleavage; in vitro, sequencing; the parent is a self-cleaving ribozyme", "values": [{"variant": "UACGUAGGUGGGUUUCCCCUGAUAGUGCUAAGGGGGCCUGGAAGUUUGGACUGGGCAGAGCUCAACACAGCGUGGCAAAGUGGCUGUGGCUAGACUGCCUCUCUGGAUUCCUCGACACUCAGCAGGGCAUCUCUGAGAGAAAUGCC", "self-cleavage": 0.75}, {"variant": "UACGUAGGUGGUUUUCCCCUGAUAGUGCUAAGGGGGCCUAGAAGUUUGGACUGGGCAGAGCUCAACACAGCGUGGCAAAGUGGCUGUGGCUAGACUGCCCCUCUGGAUUCCUCGUCACUCAGCAGGGCAUCUCUGAGAGAAAUGCC", "self-cleavage": 1.59}, {"variant": "UACGUAGGUGGUUUUCCCCUGAUAGUGCUAAGGGGGCCUGGAAGUCUGGACUGGGCAGAGCUCAACACAGCGUGGCAAAGUGGCUGUGGCUAGACUGCCUCUCUGGAUCCCUCGUCACUCAGCAGGGCAUCUCUGAGAGAAAUGCC", "self-cleavage": 1.41}, {"variant": "UACGUAGGUGGUUUUCCCCUGAUAGUGCUAAGGGGGCCUGGAUGUUUGGACUGGGCAGAGCUCAACACAGCGUGGCAAAGUGGCUGUGGCUAGACUGCCUCUCUGGAUCCCUCGUCACUCAGCAGGGCAUCUCUGAGAGAAAUGCC", "self-cleavage": 1.32}, {"variant": "UACGUAGGCGGUUUUCCCCUGAUAGUGCUAAGGGGGCCUGGAAGUUUGGACUGGGCAGAGCUCAACACAGCGUGGCAAAGUGGCUGUGGCUAGACUGCCUCUCUGGAUUCCUCGUCACUCAGCAGGGUAUCUCUGAGAGAAAUGCC", "self-cleavage": 1.52}, {"variant": "UACGUAGGUGGGUUUCCCCUGAUAGUGCUAAGGGGGCCUGGAAGUUUGGACUGGGCAGAGCUCAACACAGCGUGGCAAAGUGGCUGUGGCUAAACUGCCUCUCUGGAUUCCUCGUCACUCAGCAGGGCAUCUCUGAGAGAAAUGCC", "self-cleavage": 0}, {"variant": "UACGUAGGUGGUUUUCCCCUGAUAGUGCUAAGGGGGCCUGGAAGUUUGGACUGGGCAGAGCUCAACACAGCGUGGCAAAGUGGCUGUGGCCAGACUGCCUCUCUGGAAUCCUCGUCACUCAGCAGGGCAUCUCUGAGAGAAAUGCC", "self-cleavage": 0.55}, {"variant": "UACGUAGGUGGUUUUCCCCUGAUAGUGCUAAGGGGGCCUGGAAGUUUGGACGGGGCGGAGCUCAACACAGCGUGGCAAAGUGGCUGUGGCUAGACUGCCUCUCUGGAUUCCUCGUCACUCAGCAGGGCAUCUCUGAGAGAAAUGCC", "self-cleavage": 0.82}, {"variant": "UACGUAGGUGGUUUUCCCCUGAUAGUGCUAAGGGGGCCUGGAAGUUUGGACUGGGCAGAGCUCAACACAGCGUGGCAAAGUGGCUGUGGCUAGACUGCCUCUCUGGAUUCCUCGUCGCUCAGCAGGGCAUCUCUGAGAGAAACGCC", "self-cleavage": 1.45}, {"variant": "UACGUAGGUGGUUUUCCCCUGAUAGUGCUAAGGGGGCCUGGAAGUUUGGACUGGGCAGAGCUCAACACAGCGUGGCAAAGUGGCUGUGGCUAGACUGCCUCUCUGGAGUCCUCGUCACUCUGCAGGGCAUCUCUGAGAGAAAUGCC", "self-cleavage": 1.86}, {"variant": "UACGUAGGUGGUUUUCCCCUGAUAGUGCUAAGGGGGCCUGGAAGUUUGGACUGGGCAGAGCUCAACACAGCGUGGCAAAGUGGCUGUGGCUAGACUGCCUCUCUGGAUUCCUCGUCACUCAGCAGGGCAUCUCCAAGAGAAAUGCC", "self-cleavage": 2.1}, {"variant": "UACGUAGGUGGUUUUCCCCUGAUAGUGCCAAGGGGGCCUGGAAGUUUAGACUGGGCAGAGCUCAACACAGCGUGGCAAAGUGGCUGUGGCUAGACUGCCUCUCUGGAUUCCUCGUCACUCAGCAGGGCAUCUCUGAGAGAAAUGCC", "self-cleavage": 0.88}, {"variant": "UACGUAGGUGGUUUUCCCCUGAUAGUGCUAAGGGGGCCUGGUAGUUUGGACUGGGCAGAGCUCAAAACAGCGUGGCAAAGUGGCUGUGGCUAGACUGCCUCUCUGGAUUCCUCGUCACUCAGCAGGGCAUCUCUGAGAGAAAUGCC", "self-cleavage": 0.03}, {"variant": "UACGUAGGUGGUUUUCCCCUGAUAGUGCUAAGGGGGCCUGGAAGUUUGGACUGGGCAGAGCUCAACACACCGUGGCUAAGUGGCUGUGGCUAGACUGCCUCUCUGGAUUCCUCGUCACUCAGCAGGGCAUCUCUGAGAGAAAUGCC", "self-cleavage": 0.09}, {"variant": "UACGUAGGUGGUUUUCCCCUGAUAGAGCUAAGUGGGCCUGGAAGUUUGGACUGGGCAGAGCUCAACACAGCGUGGCAAAGUGGCUGUGGCUAGACUGCCUCUCUGGAUUCCUCGUCACUCAGCAGGGCAUCUCUGAGAGAAAUGCC", "self-cleavage": 0.62}, {"variant": "UACGUAGGUGGUUUUCCCCUGAUAGUGCUAAGGGGGCCUGGAAGUUUGGACUGGGCAGAGCUCAACUCAGCGUGGCAAAGUGGCUGUGGCUAGACUGCCUCUCUGGAUUCCUCGUCACUCAGCAGGGCAACUCUGAGAGAAAUGCC", "self-cleavage": 0.13}, {"variant": "UACGUAGGUGGUAUUCCCCUGAUAGUGCUAAGGGGGCCUGGAAGUUUGGACUGGGCAGAGCUCAACACAGCGUGGCAAAGUGGCUGUGGCUAGACUGCCUCUCUGGUUUCCUCGUCACUCAGCAGGGCAUCUCUGAGAGAAAUGCC", "self-cleavage": 1.74}, {"variant": "UACGUAGGUGGUUUUCCCCUGAUAGUGCUAAGGGGGCCUGGAAGUUUGGACUGGGCAGAGCUCAACACAGCGUGGCAAAGUGGCUGUGGCUAGACUGCUUCUCUGGAUUCCUCGUCACUCAGCAGGGCAUCUCUGAGAGAGAUGCC", "self-cleavage": 0.62}, {"variant": "UACGUAGGUGGUUUUCCCCUGAUAGUGCUAAGGGGGCCUGGAAGUUUGGACUGGGCAGAGCUCAACACAGCGUGGCAAAGUGGCUGUGGCCAGACUGCCUCUCUGGAUUCCCCGUCACUCAGCAGGGCAUCUCUGAGAGAAAUGCC", "self-cleavage": 0.59}, {"variant": "UACGUAGGUGGUUUUCCCCUGAUAGUGCUAAGGGGGCCUGGAAGUUCGGACUGGGCAGAGCUCAACACAGCGUGGCAAAGUGGCUGAGGCUAGACUGCCUCUCUGGAUUCCUCGUCACUCAGCAGGGCAUCUCUGAGAGAAAUGCC", "self-cleavage": 0.12}]}]}
